Source: EP3470429A1 (Numab Innovation AG, dated 2019)
Where a chain is given by its changes, count along the chain named.

Key:
[1] = biological target: T1, human PD-L1 expressed on cells (human, UniProt Q9NZQ7 19-290); assay: cell-based or functional assay
[2] = biological target: T1, human PD-L1 expressed on cells; assay: cell-based or functional assay; remark: listed apart in the source
[3] = biological target: T1, human PD-L1 expressed on cells; assay: cell-based or functional assay; remark: listed apart in the source
[4] = biological target: T2, human PD-L1-Fc chimeric protein (human, UniProt Q9NZQ7 19-238); assay: SPR Biacore T200, PD-L1-Fc captured by anti-human Fc
T2 construct: not shown: Fc part, captured by an anti-human IgG Fc antibody

[5] = biological target: human CD137-Fc chimeric protein (human) (UniProt Q07011); assay: SPR Biacore T200, CD137-Fc captured by anti-human Fc
Sequence of human CD137-Fc chimeric protein (human) (Q07011 24-186 limits assumed, change not shown): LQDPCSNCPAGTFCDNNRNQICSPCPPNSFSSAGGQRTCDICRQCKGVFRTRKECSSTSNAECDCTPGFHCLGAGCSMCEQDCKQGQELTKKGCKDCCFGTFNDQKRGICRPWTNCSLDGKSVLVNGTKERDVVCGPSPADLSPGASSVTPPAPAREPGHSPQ

[6] = biological target: T1, human PD-L1 expressed on cells; assay: cell-based or functional assay; remark: listed apart in the source
[7] = biological target: T3, mouse serum albumin (mouse, UniProt P07724 25-608); assay: assay not given
T3 construct: also called MSA
T3 sequence (P07724 25-608 limits assumed): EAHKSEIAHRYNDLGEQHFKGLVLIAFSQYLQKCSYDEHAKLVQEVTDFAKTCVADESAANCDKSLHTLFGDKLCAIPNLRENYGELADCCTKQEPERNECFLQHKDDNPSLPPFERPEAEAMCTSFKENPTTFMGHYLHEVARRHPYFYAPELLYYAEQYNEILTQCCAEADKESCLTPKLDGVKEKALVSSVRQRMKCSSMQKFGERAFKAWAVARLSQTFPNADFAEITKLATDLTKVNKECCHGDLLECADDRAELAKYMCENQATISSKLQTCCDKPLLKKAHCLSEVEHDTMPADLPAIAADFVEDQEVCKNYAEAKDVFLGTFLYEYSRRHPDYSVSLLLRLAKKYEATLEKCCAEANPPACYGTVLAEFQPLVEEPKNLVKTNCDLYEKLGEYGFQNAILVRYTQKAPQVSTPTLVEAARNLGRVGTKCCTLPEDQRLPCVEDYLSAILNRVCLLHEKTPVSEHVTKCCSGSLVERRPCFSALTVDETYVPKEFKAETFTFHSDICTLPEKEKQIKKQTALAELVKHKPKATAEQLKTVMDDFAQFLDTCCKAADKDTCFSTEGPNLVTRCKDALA

[8] = biological target: T4, recombinant human PDL1 extracellular domain (human, UniProt Q9NZQ7 19-238); assay: competition ELISA, PD-1 coated, biotinylated PD-L1 in solution, with HSA
T4 construct: also called hPDL1; hPDL1 ECD

[9] = biological target: T5, human serum albumin (human, UniProt P02768 25-609); assay: SPR Biacore T200, SA amine-coupled to CM5 chip, pH 5.5
T5 construct: also called HSA; human SA

B1: PRO885 (bispecific antibody)
chain: DIQMTQSPSSLSASVGDRVTITCQASQSINDYLAWYQQKPGKAPKLLIYKASTLASGVPSRFSGSGSGTDFTLTISSLQPEDFATYYCQQGYIITDIDNVFGTGTKVTVLGGGGGSQVQLQESGPGLVKPSETLSLTCKVSGFSFSNSYWICWIRQPPGKGLEWIGCTFVGSSDSTYYANWAKGRVTISVDSSKNQFSLKLSSVTAADTAVYYCARHPSDAVYGYANNLWGQGTLVTVSSGGGGSGGGGSGGGGSGGGGSIQMTQSPSSLSASVGDRVTITCQASQSINNVLAWYQQKPGKAPKLLIYRASTLASGVPSRFSGSGSGTDFTLTISSLQPEDFATYYCQSSYGNYGDFGTGTKVTVLGGGGGSQVQLQESGPGLVKPSETLSLTCKVSGFSFSSGYDMCWIRQPPGKGLEWIGCVVAGSVDITYYASWAKGRVTISVDSSKNQFSLKLSSVTAADTAVYYCARKDAYSDAFNLWGQGTLVTVSS
For B1, which “IC50 (ng/ml), NF-AT Potency assay” value [1] is on record?
Its value is 137 ng/mL.

What about the “EC50 in ng/ml of IL-2 secretion, PBMC assay using SEA stimulation” value [2] of the same binder?
The value was 39.9 ng/mL.

What about the “EC50 (ng/ml) of IL-2 secretion, PBMC with CHO cells expressing PD-L1; 1 ug/ml anti-CD3, 50000 CHO cells/well” value [3] of the same binder?
The value was 12.8 ng/mL.

And the “EC50 (ng/ml) of IL-2 secretion, PBMC with CHO cells expressing PD-L1; 1 ug/ml anti-CD3, 100000 CHO cells/well” value [3]?
The value was 86.2 ng/mL.

And the “EC50 (ng/ml) of IL-2 secretion, PBMC with CHO cells expressing PD-L1; 1 ug/ml anti-CD3, 200000 CHO cells/well” value [3]?
Its value is 80.6 ng/mL.

And the “EC50 (ng/ml) of IL-2 secretion, PBMC with CHO cells expressing PD-L1; 2 ug/ml anti-CD3, 50000 CHO cells/well” value [3]?
Its value is 52 ng/mL.

What about the “EC50 (ng/ml) of IL-2 secretion, PBMC with CHO cells expressing PD-L1; 2 ug/ml anti-CD3, 100000 CHO cells/well” value [3] of the same binder?
The value was 41.9 ng/mL.

And the “EC50 (ng/ml) of IL-2 secretion, PBMC with CHO cells expressing PD-L1; 2 ug/ml anti-CD3, 200000 CHO cells/well” value [3]?
Its value is 30.1 ng/mL.

B2: PRO1124 (bispecific antibody)
chain: B1 chain with V140A, I154V, V190K, F197V, Y213F, I261L, A302P
notes: also called 38-02-A04 sc06 Full scDb-i/33_03_G02 sc01 scDb-o
Does B2 bind [4]?
Result: binds

What about the fold improvement of affinity compared to PRO885 [5] of the same binder?
The fold improvement of affinity compared to PRO885 was greater than 200 fold.

B3: PRO1126 (bispecific antibody)
chain: B1 chain with I2F, M4L, A43S, V374S, V396A, I410V, G422A, V446K, F453V, Y469F
Which fold improvement in affinity compared to the CDR graft (PRO885) [4] does the source give for B3 here?
Its fold improvement in affinity compared to the CDR graft (PRO885) is 20 fold.

And the “IC50, NFAT reporter gene assay” value [6]?
Its value is 0.0481 µg/mL.

What about the “fold improvement of neutralization potency against PRO885” value [6] of the same binder?
The value was 3 fold.

B4: PRO997 (scFv)
scFv: DIQMTQSPSSLSASVGDRVTITCQASQSIGTYLAWYQQKPGKAPKLLIYRAFILASGVPSRFSGSGSGTDFTLTISSLQPEDFATYYCQSNFYSDSTTIGPNAFGTGTKVTVLGGGGGSGGGGSGGGGSGGGGSQVQLQESGPGLVKPSETLSLTCKVSGFSFNSDYWIYWIRQPPGKGLEWIGSIYGGSSGNTQYASWAQGRVTISVDSSKNQFSLKLSSVTAADTAVYYCARGYVDYGGATDLWGQGTLVTVSS
For B4, which “IC50 (ng/ml), NF-AT Potency assay” value [1] is on record?
Its value is 11.1 ng/mL.

What about the “EC50 in ng/ml of IL-2 secretion, PBMC assay using SEA stimulation” value [2] of the same binder?
The value was 40.9 ng/mL.

B5: PRO1057 (other)
chain: DIQMTQSPSSLSASVGDRVTITCQASQSINDYLAWYQQKPGKAPKLLIYKASTLASGVPSRFSGSGSGTDFTLTISSLQPEDFATYYCQQGYIITDIDNVFGTGTKVTVLGGGGGSQVQLQESGPGLVKPSETLSLTCKVSGFSFSNSYWICWIRQPPGKGLEWIGCTFVGSSDSTYYANWAKGRVTISVDSSKNQFSLKLSSVTAADTAVYYCARHPSDAVYGYANNLWGQGTLVTVSSGGGGSGGGGSGGGGSGGGGSIQMTQSPSSLSASVGDRVTITCQASQSINNVLAWYQQKPGKAPKLLIYRASTLASGVPSRFSGSGSGTDFTLTISSLQPEDFATYYCQSSYGNYGDFGTGTKVTVLGGGGGSQVQLQESGPGLVKPSETLSLTCKVSGFSFSSGYDMCWIRQPPGKGLEWIGCVVAGSVDITYYASWAKGRVTISVDSSKNQFSLKLSSVTAADTAVYYCARKDAYSDAFNLWGQGTLVTVSSGGGGSGGGGSVVMTQSPSSLSASVGDRVTITCQASQIISSRSAWYQQKPGQPPKLLIYQASKLASGVPSRFSGSGSGTDFTLTISSLQPEDFATYYCQCTYIDSNFGAFGGGTKLTVLGGGGGSGGGGSGGGGSGGGGSEVQLVESGGGLVQPGGSLRLSCAASGFSFSSSYWICWVRQAPGKGLEWVGCVFTGDGTTYYASWAKGRFTISRDNSKNTVYLQMNSLRAEDTATYFCARPVSVYYYGMDLWGQGTLVTVSS
notes: also called 38_02_A04 sc01 scDb-i/33-03-G02 sc01 scDb-o/mxr HSA (23-13-A01-sc03, sk17sh4)
With B5 as the binder, how does the “IC50 (ng/ml), NF-AT Potency assay, with HSA” value [1] read?
Its value is 665 ng/mL.

Does B5 bind [7]?
Result: binds

And the “fold higher IC50 in presence of human serum albumin” value [8]?
The value was roughly 2 fold.

Does B5 bind [9]?
Result: binds
